The target in data set [1] is Full length His-CopD (Chlamydia pneumoniae CWL029) (UniProt Q9Z798). Description: SEC; co-expressed and Ni-NTA purified His-CopD and LcrH_1-S-tag (300 µL, 4.5 mg/mL), Superdex S200 10/300 GL, PBS + 0.03% LDAO, 0.5 mL/min; fractions blotted with anti-His and anti-S-tag; sizes from column standards.
Data set [2] concerns the molecule itself. Described as above.

Values joined by “and” are separate entries in the source; they are usually repeats but may differ in a detail not shown here. Identical values can stand only once.

Consider LcrH_1-S-tag (natural protein), for which the stoichiometry N (LcrH 1 per CopD) in data set [1] stood at 1.

B1: Full length His-CopD (natural protein)
chain: MTSGVSGSSSQDPTLAAQLAQSSQKAGNAQSGHDTKNVTKQGAQAEVAAGGFEDLIQDASAQSTGKKEATSSTTKSSKGEKSEKSGKSKSSTSVASASETATAQAVQGPKGLRQNNYDSPSLPTPEAQTINGIVLKKGMGTLALLGLVMTLMANAAGESWKASFQSQNQAIRSQVESAPAIGEAIKRQANHQASATEAQAKQSLISGIVNIVGFTVSVGAGIFSAAKGATSALKSASFAKETGASAAGGAASKALTSASSSVQQTMASTAKAATTAASSAGSAATKAAANLTDDMAAAASKMASDGASKASGGLFGEVLNKPNWSEKVSRGMNVVKTQGARVASFAGNALSSSMQMSQLMHGLTAAVEGLSAGQTGIEVAHHQRLAGQAEAQAEVLKQMSSVYGQQAGQAGQLQEQAMQSFNTALQTLQNIADSQTQTTSAIFN
notes: CopD (Cpn0808), Chlamydia pneumoniae CWL029, 444 amino acids (44.5 kDa); Eluted from SEC as decamer, tetramer and monomer; also called Cpn0808; source: E. coli Rosetta pLysS, co-expressed with LcrH_1-S-tag (pET-DUET), purified (Ni-NTA); not shown: 6×His, N-terminal, kept
One may read the stoichiometry N as a count of units in the complex or per binding partner. Consider B1, for which the “stoichiometry N” value in data set [2] was 10 and 4.
